Results from patent US20260201033A1 (LTZ THERAPEUTICS, published 2026).
Like-named read-outs stand apart in the source and are kept apart here. One block for each binder: values may come before it.

Key:
[1] = target: T1, EpCAM on DLD-1 cells (human, UniProt P16422 24-314); assay: cell-based or functional assay
T1 sequence (looked up): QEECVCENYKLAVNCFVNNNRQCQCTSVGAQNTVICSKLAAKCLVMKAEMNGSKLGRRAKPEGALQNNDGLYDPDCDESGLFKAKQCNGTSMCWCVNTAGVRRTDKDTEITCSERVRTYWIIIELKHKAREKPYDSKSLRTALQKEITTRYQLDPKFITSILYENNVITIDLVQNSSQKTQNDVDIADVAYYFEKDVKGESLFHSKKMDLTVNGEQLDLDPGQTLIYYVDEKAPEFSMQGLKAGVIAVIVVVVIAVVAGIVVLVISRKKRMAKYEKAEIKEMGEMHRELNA

[2] = target: T2, Human CLEC5A His Tag protein (ACROBiosystems, Cat #: CLA-H5243) (human, UniProt Q9NY25 28-188, limits assumed); assay: ELISA, plate coated with human CLEC5A
T2 construct: Bought protein with a His tag; also called recombinant human CLEC5A protein
T2 sequence: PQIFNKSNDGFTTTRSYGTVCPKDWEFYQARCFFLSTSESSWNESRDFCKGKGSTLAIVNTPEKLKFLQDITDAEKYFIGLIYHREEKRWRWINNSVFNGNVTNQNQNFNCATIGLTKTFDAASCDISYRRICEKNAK

[3] = target: T3, Human C-type lectin domain family 5 member A (CLEC5A), endogenous on human monocytes and M0 macrophages (human, UniProt Q9NY25 1-188); assay: flow cytometry on human M0 macrophages, anti-human IgG PE
T3 construct: Endogenous CLEC5A on primary human monocytes and monocyte-derived M0 macrophages; also called MDL-1; M0 macrophages (CLEC5A+) cells
T3 sequence: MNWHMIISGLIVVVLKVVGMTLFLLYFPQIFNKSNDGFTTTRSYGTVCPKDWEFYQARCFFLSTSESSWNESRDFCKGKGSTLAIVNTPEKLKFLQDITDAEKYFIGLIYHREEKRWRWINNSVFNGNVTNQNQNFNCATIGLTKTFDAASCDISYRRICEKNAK

[4] = target: T1, EpCAM on DLD-1 cells; assay: flow cytometry on DLD-1 cells (EPCAM+), anti-human IgG PE
[5] = target: EGFR on DLD-1 cells (UniProt P00533 25-1210, limits assumed); assay: cell-based or functional assay
[6] = target: T4, human EGFR (ACROBiosystems, Cat #: EGR-H5222) (human, UniProt P00533 25-645); assay: ELISA, plate coated with human EGFR
T4 construct: Bought protein; also called recombinant human EGFR protein

[7] = target: T5, mouse CLEC5A (R&D Systems, Cat #: 8438-CL-050) (mouse, UniProt Q9R007 26-190, limits assumed); assay: ELISA, plate coated with mouse CLEC5A
T5 construct: Bought protein; also called recombinant mouse CLEC5A protein
T5 sequence: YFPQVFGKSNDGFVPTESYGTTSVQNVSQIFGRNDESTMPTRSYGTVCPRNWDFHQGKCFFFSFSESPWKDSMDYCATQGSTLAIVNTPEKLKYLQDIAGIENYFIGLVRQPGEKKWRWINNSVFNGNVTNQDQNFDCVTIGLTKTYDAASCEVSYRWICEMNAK

[8] = target: T2, Human CLEC5A His Tag protein …; assay: ELISA, plate coated with human CLEC5A; remark: listed apart in the source
[9] = target: T3, Human C-type lectin domain family 5 …; assay: flow cytometry on human M0 macrophages, anti-human IgG PE; remark: listed apart in the source
[10] = target: T3, Human C-type lectin domain family 5 …; assay: flow cytometry on human M0 macrophages (CLEC5A+), anti-human IgG PE, MFI (PE)
[11] = target: T6, recombinant human CLEC5A, His Tag (ACROBiosystems, Cat #: NC1-H52H4) (human, UniProt Q9NY25 28-188); assay: BLI, antibody 10 ug/ml captured on anti-human IgG Fc probe, analyte hCLEC5a; table row hCLEC5a 0.78 nM; all four rows print the same value
T6 construct: Analyte of the BLI assay; Its catalogue number differs from that of the ELISA antigen; also called human CLEC5A (BLI analyte)
T6 sequence: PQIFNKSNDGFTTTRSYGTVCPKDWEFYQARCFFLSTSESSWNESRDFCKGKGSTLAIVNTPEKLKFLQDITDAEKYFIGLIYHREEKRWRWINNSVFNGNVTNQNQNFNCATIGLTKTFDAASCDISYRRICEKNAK

[12] = target: T6, recombinant human CLEC5A, His Tag …; assay: BLI, antibody 10 ug/ml captured on anti-human IgG Fc probe, analyte hCLEC5a; table row hCLEC5a 1.56 nM; all four rows print the same value
[13] = target: T6, recombinant human CLEC5A, His Tag …; assay: BLI, antibody 10 ug/ml captured on anti-human IgG Fc probe, analyte hCLEC5a; table row hCLEC5a 3.12 nM; all four rows print the same value
[14] = target: T6, recombinant human CLEC5A, His Tag …; assay: BLI, antibody 10 ug/ml captured on anti-human IgG Fc probe, analyte hCLEC5a; table row hCLEC5a 6.25 nM; all four rows print the same value

EC50 [2]: 0.064 µg/mL
EC50 [3]: 7.35 nM
EC50 [4]: 1.1 nM
B1: EpCAM/5C7 (2+2 A) Fc-optimized (bispecific antibody, human IgG1, kappa)
heavy: QVQLQQSGAELVRPGTSVKVSCKASGYAFTNYLIEWVKQRPGQGLEWIGVINPGSGGTNYNEKFKGKATLTADKSSSTAYMQLSSLTSDDSAVYFCARDGPWFAYWGQGTLVTVSAASTKGPSVFPLAPSSKSTSGGTAALGCLVKDYFPEPVTVSWNSGALTSGVHTFPAVLQSSGLYSLSSVVTVPSSSLGTQTYICNVNHKPSNTKVDKKVEPKSCDKTHTCPPCPAPELLAGPSVFLFPPKPKDTLMISRTPEVTCVVVDVSHEDPEVKFNWYVDGVEVHNAKTKPREEQYNSTYRVVSVLTVLHQDWLNGKEYKCKVSNKALPLPEEKTISKAKGQPREPQVYTLPPSRDELTKNQVSLTCLVKGFYPSDIAVEWESNGQPENNYKTTPPVLDSDGSFFLYSKLTVDKSRWQQGNVFSCSVMHEALHNHYTQKSLSLSPGK
light: NIVMTQSPKSMSMSVGERVTLTCKASENVVTYVSWYQQKPEQSPKLLIYGASNRYTGVPDRFTGSGSATDFTLTISSVQAEDLADYHCGQGYSYPYTFGGGTKLEIKRTVAAPSVFIFPPSDEQLKSGTASVVCLLNNFYPREAKVQWKVDNALQSGNSQESVTEQDSKDSTYSLSSTLTLSKADYEKHKVYACEVTHQGLSSPVTKSFNRGECGGGGSGGGGSGGGGSAIVMTQTPSSKSVPVGDTVTINCQASESVDRNNRLAWFQQKPGQPPKLLIYTTSTLASGVPSRFKGSGSGTHFTLTISDVVPDDAATYYCAGYRGAHTDGDAFGCGTEVVVKGGGGSGGGGSGGGGSGGGGSQSLEESGGDLVKPGASLTLTCTASGFSFSRSSYMCWVRQAPGKCLEWIGCLSVGDGHTYYASWAKGRFTISKTSSTSVTLQMTRLTAADTATYFCARAPSYSGDGGHGYDLWGPGTLVTVSS
notes: also called EpCAM/CLEC5A (2+2 A) Fc-optimized antibody; EpCAM/CLEC5A bispecific antibody
IC50 (nM), DLD-1 cell killing by M0 macrophages [1]: 0.0035 nM

EC50 [6]: 0.12 µg/mL
EC50 [2]: 0.081 µg/mL
EC50 [3]: 19.5 nM
B2: EGFR2/5C7 (2+2 A) Fc-optimized (bispecific antibody, human IgG1, kappa)
heavy: QVQLQQSGAEVKKPGSSVKVSCKASGYTFTNYYIYWVRQAPGQGLEWIGGINPTSGGSNFNEKFKTRVTITADESSTTAYMELSSLRSEDTAFYFCTRQGLWFDSDGRGFDFWGQGTTVTVSSASTKGPSVFPLAPSSKSTSGGTAALGCLVKDYFPEPVTVSWNSGALTSGVHTFPAVLQSSGLYSLSSVVTVPSSSLGTQTYICNVNHKPSNTKVDKKVEPKSCDKTHTCPPCPAPELLAGPSVFLFPPKPKDTLMISRTPEVTCVVVDVSHEDPEVKFNWYVDGVEVHNAKTKPREEQYNSTYRVVSVLTVLHQDWLNGKEYKCKVSNKALPLPEEKTISKAKGQPREPQVYTLPPSRDELTKNQVSLTCLVKGFYPSDIAVEWESNGQPENNYKTTPPVLDSDGSFFLYSKLTVDKSRWQQGNVFSCSVMHEALHNHYTQKSLSLSPGK
light: DIQMTQSPSSLSASVGDRVTITCRSSQNIVHSNGNTYLDWYQQTPGKAPKLLIYKVSNRFSGVPSRFSGSGSGTDFTFTISSLQPEDIATYYCFQYSHVPWTFGQGTKLEIKRTVAAPSVFIFPPSDEQLKSGTASVVCLLNNFYPREAKVQWKVDNALQSGNSQESVTEQDSKDSTYSLSSTLTLSKADYEKHKVYACEVTHQGLSSPVTKSFNRGECGGGGSGGGGSGGGGSAIVMTQTPSSKSVPVGDTVTINCQASESVDRNNRLAWFQQKPGQPPKLLIYTTSTLASGVPSRFKGSGSGTHFTLTISDVVPDDAATYYCAGYRGAHTDGDAFGCGTEVVVKGGGGSGGGGSGGGGSGGGGSQSLEESGGDLVKPGASLTLTCTASGFSFSRSSYMCWVRQAPGKCLEWIGCLSVGDGHTYYASWAKGRFTISKTSSTSVTLQMTRLTAADTATYFCARAPSYSGDGGHGYDLWGPGTLVTVSS
notes: also called EGFR/CLEC5A (2+2 A) Fc-optimized antibody with EGFR portion of Nimotuzumab (EGFR2)
IC50 (nM), DLD-1 cell killing by M0 macrophages [5]: 0.00471 nM

EC50 [7]: 0.194 nM
EC50 [8]: 0.9 nM
EC50 [2]: 0.158 µg/mL
EC50 [9]: 3.93 nM
EC50 [3]: 0.49 nM
EC50 (read off the curve) [10]: ~0.8 nM
Kd [11]: 0.15 nM
koff [11]: 0.000189 s⁻¹
kon [11]: 1.26e+06 M⁻¹ s⁻¹
Kd [12]: 0.15 nM
koff [12]: 0.000189 s⁻¹
kon [12]: 1.26e+06 M⁻¹ s⁻¹
Kd [13]: 0.15 nM
koff [13]: 0.000189 s⁻¹
kon [13]: 1.26e+06 M⁻¹ s⁻¹
Kd [14]: 0.15 nM
koff [14]: 0.000189 s⁻¹
kon [14]: 1.26e+06 M⁻¹ s⁻¹
B3: 5C7, chimeric rabbit/human IgG1 anti-CLEC5A antibody (Fc-silenced) (antibody, V domains shown)
VH: QSLEESGGDLVKPGASLTLTCTASGFSFSRSSYMCWVRQAPGKGLEWIGCLSVGDGHTYYASWAKGRFTISKTSSTSVTLQMTRLTAADTATYFCARAPSYSGDGGHGYDLWGPGTLVTVSS
VL: AIVMTQTPSSKSVPVGDTVTINCQASESVDRNNRLAWFQQKPGQPPKLLIYTTSTLASGVPSRFKGSGSGTHFTLTISDVVPDDAATYYCAGYRGAHTDGDAFGGGTEVVVK
notes: also called ch5C7; 5C7 Fc-silenced
